In US7524668B1, “Crystal of human beta secretase having monoclinic space group symmetry C2 and methods for crystallization thereof” (Elan Pharmaceuticals, Inc., priority 2001, dated 2009):

Target: T1, beta secretase (Homo sapiens, UniProt P56817)
T1 construct: a homogeneous preparation of beta secretase with V^40 as an N-terminus could be made; made in house; host or cells: CHO-K1 cells; secreted, purified, then cleaved in vitro with HIV-1 protease
Assay: beta secretase activity assay by HPLC analysis of the products
Type: biochemical
Conditions: CHO cell derived human beta secretase cleaved at F39-V40 by HIV-1 protease, compared with unprocessed/non-treated enzyme
Description: Cleavage of Beta Secretase by HIV Protease. It was reasoned that a homogeneous preparation of beta secretase with V^40 as an N-terminus could be made if conditions could be found to bring the cleavage to completion. The optimal conditions for cleavage were determined by examining the N-terminal sequence of beta secretase after incubation with HIV-1 protease in various conditions. These included a pH range of 4-7, urea concentrations of 0.5-3.0 M, and time increments of 15 minutes, up to 2 hours incubation at 37° C. […] The processed enzyme was separated from the other components of the reaction mixture by using an affinity column based on the synthetic peptide shown in FIG. 2 and dialysis.
Purified HIV-1 protease treated (and non-treated) beta secretase were assayed for activity by HPLC analysis of the products.

B1: HIV-1 protease treated beta secretase: CHO cell expressed recombinant human beta secretase proteolytically cleaved with HIV protease at the F39-V40 bond (SEQ ID NO:5) (protein)
chain: VEMVDNLRGKSGQGYYVEMTVGSPPQTLNILVDTGSSNFAVGAAPHPFLHRYYQRQLSSTYRDLRKGVYVPYTQGKWEGELGTDLVSIPHGPNVTVRANIAAITESDKFFINGSNWEGILGLAYAEIARPDDSLEPFFDSLVKQTHVPNLFSLQLCGAGFPLNQSEVLASVGGSMIIGGIDHSLYTGSLWYTPIRREWYYEVIIVRVEINGQDLKMDCKEYNYDKSIVDSGTTNLRLPKKVFEAAVKSIKAASSTEKFPDGFWLGEQLVCWQAGTTPWNIFPVISLYLMGEVTNQSFRITILPQQYLRPVEDVATSQDDCYKFAISQSSTGTVMGAVIMEGFYVVFDRARKRIGFAVSACHVHDEFRTAAVEGPFVTLDMEDCGYNIPQTDESHHHHHH
more enzymatic activity than non-treated beta secretase: 10-20%
